Assay: yeast display, Sf9 membrane polyspecificity reagent, FACS + sequencing; frameworks hold sequencing errors
Outline: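 Galactose induction of a Saccharomyces cerevisiae BJ5465 synthetic nanobody display library ran 36–48 hours. The cells were then stained for 1 hour at 4 °C with 10% biotinylated, detergent-solubilized Sf9 membrane reagent, pulled down on streptavidin microbeads and FACS-sorted into low and high (top ~1%) gates on expression and reagent-binding fluorescence. Labels for polyreactivity follow the gate of origin.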

Sequence | polyreactivity (PSR sort gate)
QVQLVESGGGLVQAGGSLRLSCAASGRIFASYAMGWYRQAPGKERELVAAISLSGGSTYYADSVKGRFTISRDNAKNTVYLQMNSLKPEDTAVYYCAAKNYRRYRDYYWGQGTQVTVSS | high polyreactivity
QVQLVESGGGLFQAGGSLRLSCAASGRTFYSNDMGWYRQAPGNERELVAAISWRSGSTHYADSVKGRFTISRDNAKNTVYFQMNSLKPEDTAVFYCAARRRDLVPHYYWGQGTQVTVSS | high polyreactivity
QVQLVESGRGLLQAGGSLRISCAASGFTFKGNAMGWYRQAPGKESELVAAITTSGGSTYYADSVKWRFTISRDNAKNTVYLQMNSLKPEDTAVYYCNAYFIYEGGWYYNAQYDYWGQGTQVTVSS | low polyreactivity
QVQLVESGGGLVQAGGSLRLSCAASGSTFTIYAMGWYRQAPGKERELVAAITWNGGSTYYADSVKGRFTISRDNAKKTVYLQMNRLKPEDTAVYYCAAKFRYQYVRVAREYYYWGQGTQVTVSS | high polyreactivity
QVQLVESGGGLVQAGGSLRLSCAASGLTFYGYVMGWYRHAPGKERELVASISRSGGRTYYADSVKGRFTISRDNAKNTVYLQMNSLKAEDTAVYYCGAGDQVGQEDDYWGQGTQGTVSS | low polyreactivity
QVQLVESGGGLVQAGGSLSLSCAASGRTLYSNAMGWYRPAPGKERELVAAISRRGSSTYYADSVKGRFTISRDNAKNSVFLQMNSLKPEDTAVYYCARYKYTRQTRVEYGYWGQGTQVTVSS | high polyreactivity
QVQLVESGGGLVQAGGSLRLSCAASGIIFAKYAMGWYRQPPGKERELVASISRPGGSTYYADSVKGRFTISRDNAKNTVYLQMNSLKPEDTAVYDCNAPGLRDYDAEYDYWGQGTQVTVSS | high polyreactivity
QVQLVESGGGLVQAGGSLRLSCADSGFTFKSYTMGWYRQAPGKERELVAAISRRDGSTYYADSVKGRFTISRDNAKNTVYLQMNSLKPEDTAVYYCAKVWYGDRNIDRYDYWGQGTQVTVSS | high polyreactivity
QDQLVETGGGLVQAGGSLRLSCAASGSTFAYYTMGWYRPAPGKERELVAAISSGGITYYAYSVKGRFTISRDNAKNTVYLQMNSLKPEDTAVYYCAAYRTHGPPRAIRFDYWGQGTQVTVSS | high polyreactivity
QVQLVESGGGLVQAGGSLRLSCAASGFTLDWYVMGWYRQAPGKERELVAAISSSGGRTYYADSVKGRFTISRDNAKNTVSLQLNSLKPEDTAVYYCAARNKYGGYPYGYDYWGQGTQVTVSS | high polyreactivity
QVQLVESGGGLVQEGGSLRLSCAASGRTLRYNDMGWYRQAPGKERELVAAISTRGGSTYYADSVKGRFTISRDNAKNTVYLQMYSLKPEDTAVYYCAVTPRIPGHFEDYYWGQGTQVTVSS | low polyreactivity
QVQLVESGRGLDQAGGSLRISSAASGNTYKGHAMGWYRHAPGKERELVAAISWSTDSTYYADSVKGRFTISRDNAKNTVYLQMNSLKPEDTAIYYCAAYYSHLTIAWYYYWGQGTQVNVSS | low polyreactivity
QVQLVESGGGLVQAGGSLRLSSAASGSTFVNYVMGWYRQAPGKERELVAAISRRGTSTSYADSVKGRFTISRDNAKNTVYLQMNSLKPVDTAVYYCITLRQLGRPFYYWGQGTQVTVSS | high polyreactivity
QVQLVESGGGLVQAGGSLRISCAASGLTFWAYAMGWYRQAPGKEREFLAAISWSGDSTYYADSVKGRFTISRDNAKNTVYLQMNSLKPEDTAVYYCAAEWYYVYIAPYDYWGLGTQVTVSS | low polyreactivity
QVQLLETGRGLVQAGGSLRISCAASGYTFGVYVMGWYRQAPGQERELVAAISGSTYYADSVNGRFKISRDNAKNTVYLQMNSLKPEDTAVYYCAAESFFFSPRTREIFDYWGQGTQVTVSS | low polyreactivity
QVQLVESGGGLVQAGGSLRLICAASGFTFYYKAMGWYRPAHGKERELVAAISTGGSTYYADSVKGRFTISRDNAKNTVYLQMNSLKPEDTAVYYCARSLWTGGYGYYYWGQGTQVTVSS | high polyreactivity

Sequence | polyreactivity (PSR sort gate)
QVQLVESGGGLVQAGGSLRLSCAASGRIFTGNAMGWNRQAPGKERELVAAISASGSSTYYADSVKGRFTISRDNAKNTVYLQMNRLKPDDTAVYYCAADGWYGYYYWGQGTQVTVSS | high polyreactivity
QVQLVESGGCLVQAGGSLRLSCAASGSTYPVNAMVWSRKEPGKERELDATISWNDDSTDYADSVKGRFTISRDNAKNNVYLQLKSLKPEDTAVYYCAADWHAWGLYTFNSWGQGTLVTVSS | low polyreactivity
QVQLVESGGGLVQAGGSLRLSCAASGSIFESYARGWYRHSPGKERELVADITYHGGITYYADSVKGRFTISRDNAKNNFYLQMNSLKPEDTSVYYCAAESEKWYNYVLSYDWEYDYWGQGTQVTVSS | low polyreactivity
QVQLVESGGGLVQAGGSLRLSCAASGFTSSRNAMGWYLQAPGKEREWVATISSGGDTYYADSVKGRFTISRDNAKNTVYLQMNSLKPVDTAVYYCNKDPLYDWGYDYWGHGTQVTVSS | low polyreactivity
QVQLVESGGGLVQAGGSLRLSCAASGFTFDTYDMGWYRQAPGKERELVAAIDWSGVSTYYADSVKGRFTISRDNAKNTVYLQMNSLKPEDTAVYYCAADLWQYDIASWDYTYDYWGQGTQVTVSS | low polyreactivity
QVQLVESGGGLVQAGGSLRLSCADSGLTFYRYAMGWYRQAPGKERELVAAIRVSGNTYYADSVKGRFTISRDNAKNTVYLQMNSLKPEDTAVYYCAAKPYYFYGMDYWGQGTQVTVSS | high polyreactivity
QVQLVESGGGLVQAGGSHRLSCAASGSIFAIYAMGWYRQAPGKERELVAAISSSSGSTYYADSVKGRFTISRDNAKNTVYLQMNSLKPEDTAVYYCAAESGRRIKYWRGYYYWGQGTQVTVSS | low polyreactivity
QVQLVESVGGLVQPGGSLRLSCAASGRTFGRYAKGWYRQAPGKERELVAGISRSGDSTHYADSLKGRFTISRDNAKYCVYLQMKSLKPEDTEVYYCNKETPTIGARKYEYWGQGTQVNVSS | low polyreactivity
QFQLVESCGGLVHAGGSLRLSCAASGSIFFSYAMGWYRQAPGKERELVAAISSGGSTYYADSVKGRFTISRDNAKNTVYLQMNSLKPEDTAVYYCAARGYRLVPVDFYYWGQGTQVTVSS | low polyreactivity
QVQLVESGRGLVQAGGSLRLSCAASGSTFGGYAMGWYRQAPGKERELVAAISGSGVRTYYADSVKGRFTISRDNAKNTVYLQMNSLKPEDTAVYYCAKRVRYPGDRYYYWGQGTQVTLSS | high polyreactivity
QVQLVESGGGLVQAGGSLRLSCAASGRICGVYAMGWYRQAPGKERELVAAITARGGSTYYADSVKGRFTISRDNAKNTVYLQMNSLKPEVTAVYYCATRLYKRTRTITYGYWGQGTQVTVSS | high polyreactivity
QVQLVESGGGLVQAGGSLRLSCAASGRTLYYYAMGWYRQAPGKEMDLVASISRGGNTNYADSVKGRFTISRDNAKNSVYLQMYSLKPEDTAVYYCAAQYSPYSFSQYVYWGQGTQVTVSS | high polyreactivity
QVQLVESGGGLVQAGGSLRLSCAASGRTFPLYAMGWYRQAPGKERELVAAISLSGGRTYYADSVKGRFTISRDNAKNTVYLQMNSLKPEDTAVYYCAARGTLSAQVGIRRYDYWGQGTQVTVSS | low polyreactivity
QVQLVESGGGLVQAGGSLRLRCAASGRTFYSHTMGWYRQAPGKERELVAAIDWSGGRTYYADSVKGRFTISRDNAKNTVYLQMNSLKPEDTAVDYCNTVGYTRRLRSGGYWGQGTQVTVSS | high polyreactivity
QVQLVESGGGLVQAGGSLRLSCAASGRIFWYYAMGWYRQAPGKERELVAAISWSGGTTYYADSVKGRFTISRDNAKNTVYLQMNSLKPEDTAVYYCAAVFQYGYGEDYWGQGTQVTVSS | high polyreactivity

— the nanobody polyreactivity screen of Harvey et al. (2022)
